To fix the notation:
B2: biotinylated N-terminal cysteine-containing neoepitope peptide (peptide)
peptide: C([Maleimide-PEG2′-Biotin])TEEISEVKM
notes: also called biotinylated peptide; biotynylated peptide
B6: anti-neoepitope antibody 4G4 (antibody, IgG2a, V domains shown)
VH: EMKLVESGGGLVEPGGSLKLSCAASGFTFSNYAMSWVRQTPDKRLEWVASIGRGGSTFYPDSVKGRFTISRDRVRNILYLQMNSLRSEDTAIYYCRVIYSQSISFDYWGQGTTLTVSS
VL: not shown
notes: It was biotinylated when used as capture antibody in the sandwich ELISA; also called anti-sAPP β monoclonal antibody (4G4)

Groups on a side chain read outwards from the residue. Primed or numbered codes have the meaning given here. No end group written: not given here. *: point of attachment. Biotin = O=C1N[C@H]2[C@H](CS[C@H]2CCCCC(=O)*)N1; PEG2′ = not defined here

For assay [1], the target named is T1, anti-internal structure antibody 5H10.
T1 construct: also called internal antibody 5H10; internal structural antibody
T1 sequence (VH, as listed by the source, chain 1 of 2): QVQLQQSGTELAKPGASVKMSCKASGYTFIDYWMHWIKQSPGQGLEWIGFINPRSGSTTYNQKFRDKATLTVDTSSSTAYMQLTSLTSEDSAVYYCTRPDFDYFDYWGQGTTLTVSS
T1 sequence (VL, as listed by the source, chain 2 of 2): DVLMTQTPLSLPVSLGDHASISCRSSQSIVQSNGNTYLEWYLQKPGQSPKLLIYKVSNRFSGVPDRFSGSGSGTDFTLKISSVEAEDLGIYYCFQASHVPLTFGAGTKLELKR
Put plainly: competitive ELISA of 5H10, unlabelled peptide varied against the biotinylated internal structural peptide. How it is done: Reactivity of the antibody, 5H10 to the four fragment peptides 1˜4 (SEQ ID No.: 8, 9, 10, 11) was evaluated by competitive ELISA in the same method as Example 1.

Assay [2] has as its target B6. Put plainly: competitive ELISA: 4G4 captured on anti-mouse IgG plate, unlabelled immunogen peptide (SEQ ID No. 2) varied against the biotinylated neoepitope peptide with streptavidin-HRP. The protocol:
10 μl of the antibody solution containing 4G4 and 10 μl of the immunogen peptide (SEQ ID No.:2) or the long peptide ([…] SEQ ID No. 3 SIGMA) or human sAPPβ (MESO SCALE DISCOVERY) or human sAPPα (MESO SCALE DISCOVERY) and 10 μl of 0.04 ng the biotynylated peptide and 2 ng streptavidin-HRP in buffer A were placed into the above anti-mouse IgG-immobilized plates and incubated overnight at 4° C. The plates were washed three times and 25 μl of TMB substrate solution (DAKO) was added and incubated for 30 min. The reaction was finally stopped by addition of 25 μl of 0.05NH2SO4, and optical absorbance was measured at wavelength of 450 nm (FIG. 3).
In general terms: ELISA stands for enzyme-linked immunosorbent assay.

In assay [3] the target is B2. The assay can be described thus: screening ELISA: hybridoma supernatant on anti-mouse IgG plate, biotinylated peptide and streptavidin-HRP.

B1: Fragment 1 (peptide)
peptide: DSVPANTENEVE
notes: partial peptide of the 5H10 immunogen; also called fragment peptide 1
In the case of B1, in assay [1], the binding result is “no binding (tested: about 150 nM)”.

Consider B2, for which the binding result in assay [2] was “binds”.

B3: Fragment 2 (peptide)
peptide: NEVEPVDARPAA
notes: partial peptide of the 5H10 immunogen; also called fragment peptide 2
Regarding B3, in assay [1], the binding result is on record as “no binding (tested: about 150 nM)”.

B4: Fragment 3 (peptide)
peptide: RPAADRGLTTRP
notes: partial peptide of the 5H10 immunogen; also called fragment peptide 3
For the molecule B4, the binding result in assay [1] is on record as “no binding (tested: about 150 nM)”.

B5: Immunogen peptide (peptide)
peptide: DSVPANTENEVEPVDARPAADRGLTTRPGSGLTNC
notes: also called C-terminal cysteine-containing internal structural peptide; Immunogen 2 peptide
Turning to B5, the binding result in assay [1] is “binds”.

Take B6: in assay [3], the binding result is reported as “binds”.

These data come from US20150111231A1 (SHIONOGI, published 2015).
